Measurements from WO2002045743A2 (dated 2002).

T1: S87 peptide
T1 construct: Synthetic HVR 1 peptide
T1 peptide: CTGFSKHNNMGSQQKV

B1: mAb 2P24 (antibody, V domains shown)
V domain 1: EFQLQQSGAELVRPGPLVTLSCKASGFNIKDYYMNWVKQRPEQGLEWIGRIDPKNGNALYDPKFQDKARITADTSSNTAYLQLNSLTSEATAVYYCSSGWLDYWGQGTSLAVYS
V domain 2: DIVMTQSPASLAVFRGQRATISYRASKSVSTSGYSYMHWNQQKPGQPPRLLIYLVSNLESGVPARFSGSGSGTDFTLNIHPVEEEDAATYYCQHIRELTAFGGGTK
B2: mAb 15H4 (antibody, V domains shown)
VH: QVQLQQSGAELARPGASVKLSCKASGYTFTRYWMQWVKQKPGQGLEWIGAIYCGDGDTRFTQKFKGKATLTADKSSSTAYMQLSNLASEDSAVYYCVIYGNYYDAMDYWGQGTSVTVSS
VL: DIVMTQAPLSMPVSLGDQASISGRSSQSLVHSNGNTYLHWYLQKPGQSPKLLIHKVSKRFSGVPDRFSGSGSGTDFTLKIRRVEAEDLGVYFCSQNTHVPFTFGGGTK

Experiments:
S67 peptide [1] = test: IAsys biosensor, BSA-HVR1 peptide conjugate
S85 peptide [2] = test: IAsys biosensor, BSA-HVR1 peptide conjugate
DH2 peptide = test: peptide EIA, Nunc-Immuno and CovaLab plates
EH1 peptide = test: peptide EIA, Nunc-Immuno and CovaLab plates
G3895 peptide = test: peptide EIA, Nunc-Immuno and CovaLab plates
G4309 peptide = test: peptide EIA, Nunc-Immuno and CovaLab plates
G4720 peptide = test: peptide EIA, Nunc-Immuno and CovaLab plates
S52 peptide = test: peptide EIA, Nunc-Immuno and CovaLab plates
S53 peptide = test: peptide EIA, Nunc-Immuno and CovaLab plates
S54 peptide = test: peptide EIA, Nunc-Immuno and CovaLab plates
S66 peptide = test: peptide EIA, Nunc-Immuno and CovaLab plates
S67 peptide [3] = test: peptide EIA, Nunc-Immuno and CovaLab plates
S82 peptide = test: peptide EIA, Nunc-Immuno and CovaLab plates
S83 peptide = test: peptide EIA, Nunc-Immuno and CovaLab plates
S85 peptide [4] = test: peptide EIA, Nunc-Immuno and CovaLab plates
US1 peptide = test: peptide EIA, Nunc-Immuno and CovaLab plates
S87 peptide = target: T1, S87 peptide; test: peptide EIA, Nunc-Immuno and CovaLab plates

| Binder | Kd (S67 peptide [1]) [nM] | Kd (S85 peptide [2]) [nM] | EIA Sample/Cutoff ratio (S/CO) (DH2 peptide) | EIA Sample/Cutoff ratio (S/CO) (EH1 peptide) | EIA Sample/Cutoff ratio (S/CO) (G3895 peptide) | EIA Sample/Cutoff ratio (S/CO) (G4309 peptide) | EIA Sample/Cutoff ratio (S/CO) (G4720 peptide) | EIA Sample/Cutoff ratio (S/CO) (S52 peptide) | EIA Sample/Cutoff ratio (S/CO) (S53 peptide) | EIA Sample/Cutoff ratio (S/CO) (S54 peptide) | EIA Sample/Cutoff ratio (S/CO) (S66 peptide) | EIA Sample/Cutoff ratio (S/CO) (S67 peptide [3]) | EIA Sample/Cutoff ratio (S/CO) (S82 peptide) | EIA Sample/Cutoff ratio (S/CO) (S83 peptide) | EIA Sample/Cutoff ratio (S/CO) (S85 peptide [4]) | EIA Sample/Cutoff ratio (S/CO) (US1 peptide) | EIA Sample/Cutoff ratio (S/CO) (S87 peptide) |
| --- | --- | --- | --- | --- | --- | --- | --- | --- | --- | --- | --- | --- | --- | --- | --- | --- | --- |
| B1 | 18.1 | 24.3 | 18.6 | 24.8 | 25.4 | 1.1 | 24 | 1.4 | 5.7 | 18.9 | 12.7 | 24.7 | 16.1 | 11.5 | 25.6 |  |  |
| B2 | 110 | 58.5 | 12.9 | 16.9 | 7.9 |  | 14.2 | 1.9 |  | 3.9 | 24.8 | 25.1 | 3.3 | 2.3 | 24.4 | 21 | 8.9 |
